Measurements: US20050176069A1 (PHARMACIA AND UPJOHN, published 2005)
Read-outs that look alike come from different tables or passages of the source. Where no end group is shown, it is not given here. [ ]: non-standard residue; d: D form. Tyr(3-I) = N[C@@H](Cc1ccc(O)c(I)c1)C(=O)O; pGlu = O=C1CC[C@@H](C(=O)O)N1

T1: CEGPCR4 (C. elegans)
T1 construct: Expressed in CHO cells
T1 chain: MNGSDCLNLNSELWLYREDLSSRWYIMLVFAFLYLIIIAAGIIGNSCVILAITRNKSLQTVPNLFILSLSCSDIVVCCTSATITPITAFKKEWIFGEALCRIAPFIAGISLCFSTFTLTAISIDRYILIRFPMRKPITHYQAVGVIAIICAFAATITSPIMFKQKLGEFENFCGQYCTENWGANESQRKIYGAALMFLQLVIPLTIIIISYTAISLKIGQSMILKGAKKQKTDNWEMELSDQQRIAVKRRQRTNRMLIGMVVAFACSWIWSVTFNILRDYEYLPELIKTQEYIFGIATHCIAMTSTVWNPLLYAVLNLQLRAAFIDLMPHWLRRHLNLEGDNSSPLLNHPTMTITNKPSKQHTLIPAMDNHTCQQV

T2: CEGPCR4 (C. elegans)
T2 chain: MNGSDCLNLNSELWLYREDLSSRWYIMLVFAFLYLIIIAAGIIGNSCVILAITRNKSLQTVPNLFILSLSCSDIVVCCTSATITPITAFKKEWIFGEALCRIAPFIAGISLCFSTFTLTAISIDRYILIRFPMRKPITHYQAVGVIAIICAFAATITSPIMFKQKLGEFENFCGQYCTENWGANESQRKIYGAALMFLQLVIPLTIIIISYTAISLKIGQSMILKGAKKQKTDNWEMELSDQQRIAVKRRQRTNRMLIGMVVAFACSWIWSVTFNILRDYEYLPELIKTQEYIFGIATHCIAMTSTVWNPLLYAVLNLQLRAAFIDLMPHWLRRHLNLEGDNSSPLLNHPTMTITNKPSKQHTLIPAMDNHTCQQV

T3: CEGPCR12h (C. elegans)
T3 chain: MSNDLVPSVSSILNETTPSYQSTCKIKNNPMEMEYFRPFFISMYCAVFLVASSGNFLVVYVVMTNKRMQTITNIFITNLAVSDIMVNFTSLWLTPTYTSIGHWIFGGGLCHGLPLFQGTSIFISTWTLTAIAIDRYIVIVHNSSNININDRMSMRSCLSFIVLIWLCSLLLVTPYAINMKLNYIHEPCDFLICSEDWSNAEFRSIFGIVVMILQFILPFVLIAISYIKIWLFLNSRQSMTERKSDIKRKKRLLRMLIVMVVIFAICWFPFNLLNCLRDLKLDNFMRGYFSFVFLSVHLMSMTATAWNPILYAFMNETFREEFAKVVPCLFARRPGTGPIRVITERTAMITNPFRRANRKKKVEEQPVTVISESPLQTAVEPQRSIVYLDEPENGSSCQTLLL

T4: CEGPCR3 (C. elegans, UniProt P90745 1-376)
T4 sequence: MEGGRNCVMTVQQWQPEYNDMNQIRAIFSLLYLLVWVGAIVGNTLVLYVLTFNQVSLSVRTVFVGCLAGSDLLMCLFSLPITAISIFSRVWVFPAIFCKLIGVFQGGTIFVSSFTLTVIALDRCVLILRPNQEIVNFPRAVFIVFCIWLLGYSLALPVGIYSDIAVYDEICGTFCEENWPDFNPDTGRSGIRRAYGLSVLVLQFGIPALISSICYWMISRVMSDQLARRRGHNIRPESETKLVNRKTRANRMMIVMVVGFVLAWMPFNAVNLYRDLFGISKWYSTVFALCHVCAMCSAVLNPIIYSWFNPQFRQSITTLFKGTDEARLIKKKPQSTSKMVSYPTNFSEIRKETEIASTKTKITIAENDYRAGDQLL

T5: CEGPCR7 (C. elegans), Q18534
T5 chain: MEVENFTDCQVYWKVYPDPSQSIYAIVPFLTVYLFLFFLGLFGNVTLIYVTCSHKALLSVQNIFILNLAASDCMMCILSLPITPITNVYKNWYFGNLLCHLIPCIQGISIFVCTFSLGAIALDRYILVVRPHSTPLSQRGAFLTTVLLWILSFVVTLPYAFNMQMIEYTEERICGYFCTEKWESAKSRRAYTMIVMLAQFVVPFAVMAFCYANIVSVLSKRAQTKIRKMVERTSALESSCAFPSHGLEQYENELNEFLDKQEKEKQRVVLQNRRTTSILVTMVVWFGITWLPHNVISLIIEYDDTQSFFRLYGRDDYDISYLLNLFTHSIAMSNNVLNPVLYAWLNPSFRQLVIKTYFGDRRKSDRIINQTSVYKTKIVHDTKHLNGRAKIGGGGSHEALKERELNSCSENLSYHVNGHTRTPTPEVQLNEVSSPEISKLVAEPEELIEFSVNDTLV

T6: CEGPCR16 (C. elegans)
T6 chain: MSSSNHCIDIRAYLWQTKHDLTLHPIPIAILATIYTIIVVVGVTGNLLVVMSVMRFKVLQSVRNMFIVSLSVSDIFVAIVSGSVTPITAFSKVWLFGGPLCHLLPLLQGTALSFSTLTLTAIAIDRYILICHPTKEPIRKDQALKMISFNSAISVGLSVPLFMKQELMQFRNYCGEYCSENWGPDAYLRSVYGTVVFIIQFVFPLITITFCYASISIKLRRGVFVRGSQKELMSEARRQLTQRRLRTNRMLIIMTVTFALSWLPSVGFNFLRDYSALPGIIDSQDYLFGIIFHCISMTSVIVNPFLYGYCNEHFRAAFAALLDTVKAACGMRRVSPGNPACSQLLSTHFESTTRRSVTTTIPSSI


What was measured:
CEGPCR4 = target: T1, CEGPCR4; assay: competition binding assay, CEGPCR4/CHO membranes, vs [125I-Y]DVPGVLRF-NH2
CEGPCR4 (C. elegans) = target: T2, CEGPCR4 (C. elegans); assay: as above
CEGPCR12h (C. elegans) = target: T3, CEGPCR12h (C. elegans); assay: cell-based or functional assay
CEGPCR3 = target: T4, CEGPCR3; assay: cell-based or functional assay
[1] = target: T5, CEGPCR7 (C. elegans), Q18534; assay: cell-based or functional assay
CEGPCR16 = target: T6, CEGPCR16; assay: cell-based or functional assay

Binder | IC50 (CEGPCR4) | IC50 (CEGPCR4 (C. elegans)) | other results
SEVPGVLRF-NH2 [SEVPGVLRF-NH2] | 0.5 to 10 nM | – | –
[Tyr(3-I)]PGVLRF-NH2 (N-terminus assumed; SMILES CC(C)C[C@H](NC(=O)[C@@H](NC(=O)CNC(=O)[C@@H]1CCCN1C(=O)[C@@H](N)Cc1ccc(O)c(I)c1)C(C)C)C(=O)N[C@@H](CCCNC(=N)N)C(=O)N[C@@H](Cc1ccccc1)C(N)=O, Synthetic; also called 3-Ioda-Y-PGVLRF-NH2) [3-Iodo-Y-PGVLRF-NH2] | 1 to 60 nM | – | –
PDVDHVFLRF-NH2 […-NH2 (SchistoFLRFa)] | – | 60000 to 900000 nM | EC50, [35S]GTPγS assay (CEGPCR12h (C. elegans)): 330 nM
GGPQGPLRF-NH2 [GGPQGPLRF-NH2] | 50000 to 500000 nM | – | EC50, GTPγS assay (CEGPCR3): 152 nM
GLGPRPLRF-NH2 […-NH2 (AF9)] | – | – | AF9-induced [35S]GTPγS binding, cells kept at 37° C. (third of three experiments; no stimulation in the other two) [1]: 1.4 fold; AF9-induced [35S]GTPγS binding, cooling (28° C.) protocol [1]: 2.6 fold; EC50, GTPγS assay [1]: 207 nM
GMPGVLRF-NH2 [GMPGVLRF-NH2 (AF20)] | – | 0.5 to 10 nM | –
TDVDHVFLRF-NH2 […-NH2 (dromyosuppressin)] | – | 50000 to 500000 nM | –
SVPGVLRF-NH2 [SVPGVLRF-NH2] | 0.5 to 10 nM | – | EC50, [35S]GTPγS assay (CEGPCR16): 64 nM
AVPGVLRF-NH2 [AVPGVLRF-NH2 (AF3)] | – | 0.5 to 10 nM | –
GNSFLRF-NH2 (also called GNSFLRFamide) [GNSFLRF-NH2] | 60000 to 900000 nM | – | EC50, GTPγS assay (CEGPCR3): 7900 nM
[pGlu]DVDHVFLRF-NH2 (SMILES CC(C)C[C@H](NC(=O)[C@H](Cc1ccccc1)NC(=O)[C@@H](NC(=O)[C@H](Cc1c[nH]cn1)NC(=O)[C@H](CC(=O)O)NC(=O)[C@@H](NC(=O)[C@H](CC(=O)O)NC(=O)[C@@H]1CCC(=O)N1)C(C)C)C(C)C)C(=O)N[C@@H](CCCNC(=N)N)C(=O)N[C@@H](Cc1ccccc1)C(N)=O) [p…-NH2 (leucomyosuppressin)] | – | 60000 to 900000 nM | –
[Tyr(3-I)]GVLRF-NH2 (N-terminus assumed; SMILES CC(C)C[C@H](NC(=O)[C@@H](NC(=O)CNC(=O)[C@@H](N)Cc1ccc(O)c(I)c1)C(C)C)C(=O)N[C@@H](CCCNC(=N)N)C(=O)N[C@@H](Cc1ccccc1)C(N)=O, Synthetic) [3-Iodo-Y-GVLRF-NH2] | 1 to 60 nM | – | –
GPSGPLRF-NH2 [GPSGPLRF-NH2] | – | – | EC50, GTPγS assay (CEGPCR3): 422 nM
GDVPGVLRF-NH2 […-NH2 (AF4)] | – | 0.5 to 10 nM | –
